According to patent publication US12533403B2, “Peptide conjugated particles” (NORTHWESTERN UNIVERSITY, priority 2013, dated 2026):

System: allergic airway inflammation (murine allergy model)
Experiment: Therapeutic treatment of OVA/Alum-induced allergic airway inflammation
Type: in vivo, mice
Conditions: treated after exposure to OVA
Experimental: To test the therapeutic effect of OVA encapsulated in PLG particles on airway inflammation, mice were treated intraperitoneally with OVA/Alum at a dose of 10 μg/mouse on day 0 and day 14. The mice were intravenously administered with OVA-PLG on days 28, and 42. Between days 56-58, the mice were treated three times with aerosolized OVA.
The animals were treated as described above except that on days 28 and 42, the mice were treated with either OVA encapsulated in PLG particles, or OVA coupled to PLG particles.
In the allergy model, coupled nanoparticles have a propensity to cause anaphylaxis and are not an effective therapy. […] Animals were exposed to OVA as an allergen, and were then treated with either a sham-PLG or TIMP particle, a PLG or TIMP particle with OVA, or no treatment.

B1: OVA-PLG surface coupled particles: PLGA particle with OVA coupled to the outside of the particle (conjugate, UniProt P01012 2-386, looked up)
Ovalbumin: GSIGAASMEFCFDVFKELKVHHANENIFYCPIAIMSALAMVYLGAKDSTRTQINKVVRFDKLPGFGDSIEAQCGTSVNVHSSLRDILNQITKPNDVYSFSLASRLYAEERYPILPEYLQCVKELYRGGLEPINFQTAADQARELINSWVESQTNGIIRNVLQPSSVDSQTAMVLVNAIVFKGLWEKAFKDEDTQAMPFRVTEQESKPVQMMYQIGLFRVASMASEKMKILELPFASGTMSMLVLLPDEVSGLEQLESIINFEKLTEWTSSNVMEERKIKVYLPRMKMEEKYNLTSVLMAMGITDVFSSSANLSGISSAESLKISQAVHAAHAEINEAGREVVGSAEAGVDAASVSEEFRADHPFLFCIKHIATNAVLFFGRCVSP
modifications: coupled to PLG particles
B1 was tested, and the TH2 response was “fail to reduce the TH2 response”.
